Positions count from the first letter of the chain named.
T1: mouse IL-2Rβ (mouse) (UniProt P16297)
T1 sequence (looked up): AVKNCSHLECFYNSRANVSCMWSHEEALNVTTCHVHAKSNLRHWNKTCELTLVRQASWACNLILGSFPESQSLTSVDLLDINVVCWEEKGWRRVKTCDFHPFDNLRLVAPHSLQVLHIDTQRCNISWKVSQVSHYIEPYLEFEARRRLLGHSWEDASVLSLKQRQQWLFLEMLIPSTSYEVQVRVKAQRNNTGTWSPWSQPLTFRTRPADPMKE

B1: FJ1427 P035MP02A12 (VHH)
VHH: QVQLQESGGGLVQAGGSLRLSCAVSGRSFRNYVMGWFRQAPGREREIVAGITQFTSTTYYDDSVKGRFTISRDNAKNTVYLQMNSLKPEDTALYYCAADRSIKMTADWAYWGQGTQVTVSS
B2: FJ1427_P035MP02F11 (VHH)
VHH: EVQLVESGGGLVQAGGSLRLSCAASGRDFSSYAMGWFRQAPGKEREFVVAITWTKRSTDFPDSVKGRFTISRDNAKNTVYLDMNSLKPEDTAVYYCASARGLPVTPLGDIIYWGEGTLVTVSS
B3: FJ1427_P035MP02G11 (VHH)
VHH: B2 VHH with E1Q, V2L
B4: FJ1427_P035MP02H11 (VHH)
VHH: EVQLVESGGGLVQAGGSLRLSCAASGRTFSTTEMGWFRQAPGKEREFVAAITWTGRGTMYAESVEGRFTISRENAKNMVYLQMNSLKPEDTAIYYCAAARRGRAAVRSEGGYDFWGQGTQVAVSS
B5: FJ1427 P035MP02F02 (VHH)
VHH: EVQLVESGGGLVQAGGSLRLACALSGDVFVRYTMAWFRQAPGKEREFVASVTDSGRTTDYVASVQGRFTVSRDNNKNTVYLQMNSLKPEDTAVYYCAANTDYFQIRSLDRNTWGQGTQVTVSS
B6: FJ1427 P035MP02E02 (VHH)
VHH: EVQLVESGGGLVQTGGSLRLSCAASGSQFINDVMGWYRQVPGKQRELVADMDDTGSTKYADSVKGRFTILRDSVKNTAYLQMSNLKPEDTGVYYCKAGLWIKGRHSDYWGQGTQVTVSS
B7: FJ1427_P035MP02B02 (VHH)
VHH: EVQLVESGGTLVQTGGSLRLSCVVSGSHFISDVMGWYRQVPGKQRELVADMADGGSAKYGDSVKGRFTIVRDSVKNTVYLQMSSLNPEDTGVYYCKAGLWIKGRHSDYWGQGTQVTVTS
B8: FJ1427 P035MP02D02 (VHH)
VHH: QVQLVESGGGLVQVGGSLSVSCAASGRSFDSITMAYFRQAPGNEREFIAGINFSGSRTAYGDSVKGRFTISRDNAKNTVFLQMNSLNPEDTAVYYCAASPRGFYGPGHALYDYWGQGTQVTVSS
B9: FJ1427_P035MP02A03 (VHH)
VHH: QVQLVESGGGLVQPGGSLRLSCAASGFTFSNYAMSWVRQAPGKGLEWVSSITGAGRGTYYAESVKGRFTISRDNDKNTLYLQMNSLKPEDTAVYYCAKYDSSTFYPPTPARGIADRGQGTRVTVSS
B10: FJ1427_P035MP02C02 (VHH)
VHH: QVQLVESGGGLVQPGGSLRLSCAASGSRFVSDFMGWYRQVPGKQRELVADMADGGSARYGDSVKGRFTILRDNMNSTAFLQMSSLKPEDTGVYYCKAGLWIAGRHFDYWGQGTQVTVSS
B11: FJ1427_P035MP02B03 (VHH)
VHH: B10 VHH with P14T, N73S, M74G, F79Y
B12: FJ1427 P035MP02G02 (VHH)
VHH: QVQLVESGGGLVQPGGSLRLSCAASGSHFISDVMGWYRQVPGKQRELVADMADGGSVKYGDSVKGRFTILRDSVKNTVTLQMSSLNPEDTGVYYCKAGLWITGRHFDYWGQGIQVTVTS
B13: FJ1427_P035MP02D03 (VHH)
VHH: QVQLVESGGGLVQAGGPLRLSCAASGGTFSSYAMGWFRQAPGKEREFVAATTRGGGRTMYAVSTEGRFTCSRDNAKNTVYLLMNSLKPEDTAVYYCAAMTSYYSGTYYPDSSDFDIWGQGTQVTVSS

Each binder was assayed against T1, mouse IL-2Rβ (mouse) (assay: P.E. binding ELISA on coated protein).
With B1 the P.E. binding ELISA OD was 0.047 OD450 nm.
Work on B2 yielded a P.E. binding ELISA OD of 0.047 OD450 nm.
B3 gave a P.E. binding ELISA OD of 0.049 OD450 nm.
For B4, the P.E. binding ELISA OD was 0.049 OD450 nm.

The binders below were run against T1, mouse IL-2Rβ (mouse) (assay: P.E. ELISA, coated protein).
In the case of B5, the P.E. binding ELISA OD is reported as 0.052 OD450 nm.
In the case of B6, the P.E. binding ELISA OD is reported as 0.049 OD450 nm.
B7 was tested, and the P.E. binding ELISA OD was 0.048 OD450 nm.
B8 showed a P.E. binding ELISA OD of 0.048 OD450 nm.
In the case of B9, the P.E. binding ELISA OD is reported as 0.048 OD450 nm.
B10 showed a P.E. binding ELISA OD of 0.048 OD450 nm.
Work on B11 yielded a P.E. binding ELISA OD of 0.048 OD450 nm.
B12 was tested, and the P.E. binding ELISA OD was 0.049 OD450 nm.
For B13, the P.E. binding ELISA OD was 0.048 OD450 nm.

Reference: US20240409645A1
